In test [1] the target is T1, EGFR on the surface of human A431 cells (human, UniProt P00533 25-1210). Briefly: cell-based or functional assay.
For test [2], the target named is T1, EGFR on the surface of human A431 cells. Briefly: competition with 10 nM Eu-EGF on A431 cells, time resolved fluorescence; Midscale preparation. As for the experimental part: (§1) Human epithelial carcinoma cells, clone A431, which express large numbers of EGFRs on the cell surface, are plated into 96 well tissue culture plates and allowed to adhere for 48 hours. The cells are washed with serum free media and dilutions of the selected clones are incubated with the cells for 15 minutes, 37° C. in a humidified incubator in 5% CO₂. This incubation allows binding of the clone to the EGFR on the cell surface.

The target of a further test is EGFR 525-Fc (human) (UniProt P00533). Description: direct binding ELISA, single point; clone captured by anti-His, 50 nM receptor-Fc, anti-human Fc HRP. (In general: An ELISA detects its analyte on a solid surface through an enzyme-linked reagent.)
Test [3] deals with T1, EGFR on the surface of human A431 cells. Description: competition with 10 nM Eu-EGF on A431 cells, time resolved fluorescence; protein diluted in PBS buffer. As for the experimental part: as §1
Test [4] has the same target. Briefly: competition with 10 nM Eu-EGF on A431 cells, time resolved fluorescence; protein diluted in Tris buffer. The procedure:
as §1

Test [5] concerns the target T2, EGFR-Fc (R&D Systems), ectodomain of human EGFR as a Fc fusion (human, UniProt P00533 25-645).
T2 construct: extracellular domain; Bought from R&D Systems; also called EGFR-FL-Fc; full length EGFR Fc fusion protein; not shown: Fc of the purchased fusion
Description: direct binding ELISA, single point; clone captured by anti-His, 50 nM receptor-Fc, anti-human Fc HRP. The procedure: Proteins encoded by independent clones were analyzed for binding to the full length ectodomain of EGFR as well as a truncated version containing the first 525 amino acids (EGFR 525) of the EGFR ectodomain in single point direct binding assays. Anti-His antibodies were used to capture protein clones in an oriented fashion followed by incubation with full length EGFR or EGFR 525 Fc fusion proteins. Bound receptor-Fcs were detected via anti-human Fc HRP conjugate with a chromogenic readout (i.e. A450). […] The SGE control is the ¹⁰FN3 domain as shown in SEQ ID NO: 1 with the integrin binding domain (RGD) substituted with amino acids SGE.
The protein populations resulting from the above selections are expressed in E. coli as His6 tagged proteins. The direct binding ELISA relies on the oriented capture of His6 tagged clones onto anti-His monoclonal antibody plates (EMD Biosciences, San Diego, Calif.) blocked with casein block buffer (Pierce, Rockford, Ill.) for 1-2 hrs. Typically a 1:50 dilution of HTPP material (0.2-2 ug) is captured for 1 hr, followed by incubation with 50 nM of the EGFR-Fc targets. Bound EGFR-Fcs are detected by incubation with anti-human HRP. Bound HRP conjugate is detected using the colorimetric substrate TMB (BD Biosciences, San Jose, Calif.) following the manufacturer's instructions.

Broadly, the IC50 is the concentration needed to halve the response being measured. Low values mean greater potency, high ones weaker potency.

B1: 679F09 (designed binder)
chain: VSDVPRDLEVVAATPTSLLISWQVPRPMYQRYYRITYGETGGNSPVQEFTVPGGVRTATISGLKPGVDYTITVYAVTDYMHSEYRQYPISINYRT
notes: 10Fn3-based clone expressed in E. coli as His6 tagged protein; also called clone 679F09; not shown: His6 tag
As to B1, in test [1], the “EGF-stimulated EGFR phosphorylation on tyrosine 1068, A431 cells (In Cell Western), IC50” value is 2800 nM; the “EGF-stimulated EGFR phosphorylation on tyrosine 1068, DiFi cells (ELISA), IC50” value was 1490 nM; the “EGF-stimulated EGFR phosphorylation on tyrosine 1068, FaDu cells (In Cell Western), IC50” value was 1300 nM; the “EGF-stimulated ERK phosphorylation, A431 cells (In Cell Western), IC50” value is 3100 nM. In addition, in test [1], the “EGF-stimulated ERK phosphorylation, DiFi cells (ELISA), IC50” value is above 4000 nM; the “EGF-stimulated ERK phosphorylation, FaDu cells (In Cell Western), IC50” value is 2000 nM; the “EGF-stimulated total EGFR phosphorylation, A431 cells (In Cell Western), IC50” value worked out at 2400 nM; the “EGF-stimulated total EGFR phosphorylation, DiFi cells (ELISA), IC50” value was found to be 5300 nM. In test [2], this molecule yielded an IC50 of 14.7 nM. In addition, the A450 in the test with EGFR 525-Fc (human) came out at 2.47 A450. This molecule also registered an IC50 in test [3] of 13 nM. Besides, in test [4], the IC50 was found to be 20 nM. For the same molecule, the A450 in test [5] is 2.42 A450.
